Experimental data from paper PMC11430614, “Bacterial Purine Nucleoside Phosphorylases from Mesophilic and Thermophilic Sources: Characterization of Their Interaction with Natural Nucleosides and Modified Arabinofuranoside Analogues” (Biomolecules, 2024).

What was measured:
[1] = tested on: T1, EntPNP (PNP from Enterobacter); test: HPLC phosphorolysis assay, Michaelis-Menten fit; type: biochemical, Enterobacter sp.; details: 50 mM KH2PO4, pH 7.5, 25 °C, tested up to 4 mM, no plateau
T1 construct: commercial preparation (Sigma-Aldrich); acts on 6-oxopurine nucleosides only
Description: HPLC phosphorolysis assay, Michaelis-Menten fit on EntPNP (PNP from Enterobacter)

[2] = tested on: T1, EntPNP (PNP from Enterobacter); test: coupled xanthine oxidase assay, […] nm, Michaelis-Menten fit; type: biochemical, Enterobacter sp.; details: 50 mM KH2PO4, pH 7.5, 25 °C; phosphorolysis
[3] = tested on: Nc1ncnc2c1ncn2[C@@H]1O[C@H](CO)[C@@H](O)[C@H]1O; test: purified protein; details: 50 mM KH2PO4, pH 7.5, 25 °C, phosphorolysis
[4] = substrate: O=c1[nH]cnc2c1ncn2[C@@H]1O[C@H](CO)[C@@H](O)[C@@H]1O; test: HPLC phosphorolysis assay, Michaelis-Menten fit; type: biochemical, Escherichia coli; details: 50 mM KH2PO4, pH 7.5, 25 °C, tested up to 4 mM, no plateau
Description: HPLC phosphorolysis assay, Michaelis-Menten fit on EcPNP

[5] = substrate: OC[C@H]1O[C@@H](n2cnc3c(O)ncnc32)[C@H](O)[C@@H]1O; test: purified protein; type: biochemical, Escherichia coli; details: 50 mM KH2PO4, pH 7.5, 25 °C, phosphorolysis

**Q.** How did the Km [1] turn out when `O=c1[nH]cnc2c1ncn2[C@@H]1O[C@H](CO)[C@@H](O)[C@@H]1O` [9-(β-D-arabinofuranosyl)hypoxanthine] was run?
**A.** 2900 ± 831 µM

**Q.** For `O=c1[nH]cnc2c1ncn2[C@@H]1O[C@H](CO)[C@@H](O)[C@H]1O` [inosine], which Km [2] is on record?
**A.** 107 ± 21 µM

**Q.** For EcPNP (Escherichia coli K-12), which Km [3] is on record?
**A.** 21 ± 5 µM

**Q.** And the kcat [3]?
**A.** 137.7 s⁻¹

B1: EcPNP (Escherichia coli K-12) (protein)
chain: ATPHINAEMGDFADVVLMPGDPLRAKYIAETFLEDAREVNNVRGMLGFTGTYKGRKISVMGHGMGIPSCSIYTKELITDFGVKKIIRVGSCGAVLPHVKLRDVVIGMGACTDSKVNRIRFKDHDFAAIADFDMVRNAVDAAKALGIDARVGNLFSADLFYSPDGEMFDVMEKYGILGVEMEAAGIYGVAAEFGAKALTICTVSDHIRTHEQTTAAERQTTFNDMIKIALESVLLGDKE
notes: recombinant from plasmid pER-EcPNP, host E. coli ER2566
**Q.** Which results are given for B1?
**A.** Km [4]: 1810 ± 371 µM; kcat [4]: 0.709 s⁻¹; Km [5]: 76 ± 21 µM; kcat [5]: 29.2 s⁻¹
